Source: article PMC12118398

Biological target: FXR1-CFP (human)
Assay: FRET or BRET

FXR1-CFP (natural protein), sequence (P51114 2-621): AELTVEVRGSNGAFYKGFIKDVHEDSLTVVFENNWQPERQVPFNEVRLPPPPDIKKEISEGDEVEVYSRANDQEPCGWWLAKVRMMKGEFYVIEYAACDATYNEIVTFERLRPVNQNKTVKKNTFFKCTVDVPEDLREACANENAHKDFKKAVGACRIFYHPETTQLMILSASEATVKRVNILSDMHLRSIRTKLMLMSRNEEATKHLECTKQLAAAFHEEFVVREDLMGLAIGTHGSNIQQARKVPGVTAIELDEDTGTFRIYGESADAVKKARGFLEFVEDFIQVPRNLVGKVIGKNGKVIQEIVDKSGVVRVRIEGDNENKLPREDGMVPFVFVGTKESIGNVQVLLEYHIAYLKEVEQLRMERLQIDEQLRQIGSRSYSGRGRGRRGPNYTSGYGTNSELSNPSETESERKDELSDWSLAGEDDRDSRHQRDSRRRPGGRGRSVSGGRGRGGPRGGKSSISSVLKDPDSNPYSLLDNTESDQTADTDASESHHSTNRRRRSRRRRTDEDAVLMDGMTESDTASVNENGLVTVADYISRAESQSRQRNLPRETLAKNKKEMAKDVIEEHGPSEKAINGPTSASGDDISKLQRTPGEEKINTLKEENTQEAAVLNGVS
YFP-FXR2_(14-399), sequence (P51116 14-399): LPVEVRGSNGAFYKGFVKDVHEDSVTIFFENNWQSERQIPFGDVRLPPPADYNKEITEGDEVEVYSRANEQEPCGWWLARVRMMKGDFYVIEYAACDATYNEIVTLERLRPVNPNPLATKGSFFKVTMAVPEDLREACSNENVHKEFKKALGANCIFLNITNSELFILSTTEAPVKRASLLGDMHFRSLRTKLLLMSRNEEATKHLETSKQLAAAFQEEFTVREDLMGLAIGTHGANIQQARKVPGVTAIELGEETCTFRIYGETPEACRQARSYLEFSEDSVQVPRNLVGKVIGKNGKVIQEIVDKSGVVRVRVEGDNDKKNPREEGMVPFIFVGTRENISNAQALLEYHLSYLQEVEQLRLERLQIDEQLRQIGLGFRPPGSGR
SFPQ-YFP (natural protein), sequence (P23246 whole entry): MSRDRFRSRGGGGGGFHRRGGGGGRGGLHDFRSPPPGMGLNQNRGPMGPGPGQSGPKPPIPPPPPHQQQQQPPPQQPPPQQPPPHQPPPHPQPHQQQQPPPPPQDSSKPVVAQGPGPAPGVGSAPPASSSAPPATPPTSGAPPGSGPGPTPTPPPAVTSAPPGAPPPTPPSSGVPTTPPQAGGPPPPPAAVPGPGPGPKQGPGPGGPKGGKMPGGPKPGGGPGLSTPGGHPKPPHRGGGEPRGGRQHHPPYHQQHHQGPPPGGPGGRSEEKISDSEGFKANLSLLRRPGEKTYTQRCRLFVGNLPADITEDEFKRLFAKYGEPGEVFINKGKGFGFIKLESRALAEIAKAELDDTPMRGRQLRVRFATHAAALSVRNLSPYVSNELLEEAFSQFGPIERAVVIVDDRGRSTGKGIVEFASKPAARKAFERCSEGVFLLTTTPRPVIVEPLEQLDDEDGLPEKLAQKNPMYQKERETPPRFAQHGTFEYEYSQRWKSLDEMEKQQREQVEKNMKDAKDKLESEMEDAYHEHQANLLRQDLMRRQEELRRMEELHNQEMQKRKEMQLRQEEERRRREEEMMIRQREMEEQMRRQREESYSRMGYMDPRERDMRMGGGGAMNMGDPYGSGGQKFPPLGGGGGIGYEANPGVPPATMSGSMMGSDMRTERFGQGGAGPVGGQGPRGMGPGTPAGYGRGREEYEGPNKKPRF

Substance “YFP-FXR2_(14-399) (from UniProt P51116 14-399) (domain or fragment)” has an FRET efficiency of 8.3%.
For FXR1-CFP (natural protein), the FRET efficiency was 8.9%.
With “YFP-FMRP_(1-380) (from UniProt Q06787 1-380) (domain or fragment)” the FRET efficiency was 9.7%.
For SFPQ-YFP (natural protein), the FRET efficiency was 9.1%.
